Data set [1] concerns the target FANCA (FA core complex component, in cells) [human (endogenous in HCT116 or HEK293 cells)]. In words: co-immunoprecipitation (quantified Western blot). Conditions: cell-based; n = 3 independent co-immunoprecipitation experiments; parent: 100; read off a plot. A general note: In western blotting, separated proteins are transferred to a membrane and probed.
The target in data set [2] is FANCE (FA core complex component, in cells) [human (endogenous in HCT116 or HEK293 cells)]. The data set can be described thus: co-immunoprecipitation (quantified Western blot). To be noted: cell-based; n = 3 independent co-immunoprecipitation experiments; parent: 100; read off a plot.
In a further data set the target is T1, FANCM-CTD;FAAP24 (human?;human?, UniProt Q8IYD8;Q9BTP7 1799-2048;1-215, |).
T1 sequence 1: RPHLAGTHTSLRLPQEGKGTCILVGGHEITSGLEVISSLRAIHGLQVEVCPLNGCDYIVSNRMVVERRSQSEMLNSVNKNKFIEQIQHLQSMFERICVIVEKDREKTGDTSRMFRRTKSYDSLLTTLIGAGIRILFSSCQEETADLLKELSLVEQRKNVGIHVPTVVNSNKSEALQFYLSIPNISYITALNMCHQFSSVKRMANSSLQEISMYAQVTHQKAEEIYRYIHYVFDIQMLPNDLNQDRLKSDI
T1 sequence 2: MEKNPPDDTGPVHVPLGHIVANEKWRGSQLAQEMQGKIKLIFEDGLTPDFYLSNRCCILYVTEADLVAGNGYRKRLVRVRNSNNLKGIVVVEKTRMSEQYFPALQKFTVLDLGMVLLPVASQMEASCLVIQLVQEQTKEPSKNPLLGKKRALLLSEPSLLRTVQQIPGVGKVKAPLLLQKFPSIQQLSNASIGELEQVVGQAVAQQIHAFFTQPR
In words: crystal structure (2.4 A); Mg2+ site in FAAP24; duplex contacted, splayed arms disordered; Fluorescence anisotropy: 25 mM Tris-HCl pH 8, 20 mM NaCl, 2 mM MnCl2, 0.1 mg/ml BSA, temperature not stated; crystals N-terminal domain: 0.2 M NaCl, 0.1 M HEPES pH 7.0, 32.5% PEG 400, room temperature; CTD: 25% PEG3350, 0.1 M diammonium hydrogen phosphate. To be noted: protein: recombinant;recombinant; tags: GST (PreScission cleaved);HIS; copies: 1;1; 17 bp duplex with splayed arms: 3' TTTT on SA1 and 5' TTTT on SA2 at the same end. (Fluorescence polarisation rises when a labelled molecule tumbles more slowly, as on binding a larger partner.)

For data set [3], the target named is T2, FANCM translocase domain (8HIS-FANCM 73-644) (human, UniProt Q8IYD8 73-644).
T2 sequence: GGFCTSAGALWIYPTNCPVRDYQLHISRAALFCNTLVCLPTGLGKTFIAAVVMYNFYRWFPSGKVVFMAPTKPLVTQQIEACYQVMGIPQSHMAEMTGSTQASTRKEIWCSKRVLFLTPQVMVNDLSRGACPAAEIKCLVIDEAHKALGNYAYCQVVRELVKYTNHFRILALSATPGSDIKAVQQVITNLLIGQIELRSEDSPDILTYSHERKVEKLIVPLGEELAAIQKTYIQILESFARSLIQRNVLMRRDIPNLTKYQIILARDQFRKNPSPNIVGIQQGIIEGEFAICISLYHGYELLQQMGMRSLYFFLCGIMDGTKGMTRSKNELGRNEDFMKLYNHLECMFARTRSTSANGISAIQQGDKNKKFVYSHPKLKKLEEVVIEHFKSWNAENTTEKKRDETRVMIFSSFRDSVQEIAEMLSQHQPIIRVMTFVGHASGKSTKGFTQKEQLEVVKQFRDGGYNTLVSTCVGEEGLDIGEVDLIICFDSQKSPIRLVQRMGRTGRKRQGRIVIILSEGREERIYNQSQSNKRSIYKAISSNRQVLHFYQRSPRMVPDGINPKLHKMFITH
The data set can be described thus: crystal structure (2.2 A); 5 mM MgCl2 in protein buffer; Fluorescence anisotropy: 25 mM Tris-HCl pH 8, 20 mM NaCl, 2 mM MnCl2, 0.1 mg/ml BSA, temperature not stated; crystals N-terminal domain: 0.2 M NaCl, 0.1 M HEPES pH 7.0, 32.5% PEG 400, room temperature; CTD: 25% PEG3350, 0.1 M diammonium hydrogen phosphate. Conditions: protein: recombinant; tags: 8xHis N-terminal; hairpin, 14 bp stem, TTAG loop, 11 nt 3' flap.

With “Flag-FANCM-wildtype (expressed in cells) mutant P999L [human] / FANCA (FA core complex component, in cells) [human (endogenous in HCT116 or HEK293 cells)] chain 1 P999L”, the percent of parent (% of wild-type FANCM) in data set [1] is 14. With “Flag-FANCM-wildtype (expressed in cells) mutant P999L [human] / FANCE (FA core complex component, in cells) [human (endogenous in HCT116 or HEK293 cells)] chain 1 P999L”, the percent of parent (% of wild-type FANCM) in data set [2] was determined as 10. As for “Flag-FANCM-wildtype (expressed in cells) mutant V990A [human] / FANCA (FA core complex component, in cells) [human (endogenous in HCT116 or HEK293 cells)] chain 1 V990A”, in data set [1], the percent of parent (% of wild-type FANCM) was found to be 40.

Turning to “Flag-FANCM-wildtype (expressed in cells) mutant V990A [human] / FANCE (FA core complex component, in cells) [human (endogenous in HCT116 or HEK293 cells)] chain 1 V990A”, the percent of parent (% of wild-type FANCM) in data set [2] came to 27.

B1: SA1/SA2 splayed duplex (dsDNA)
DNA 1: TACGCATCATCGCTCGGTTTT
DNA 2: TTTTCCGAGCGATGATGCGTA
Turning to B1, in the data set with FANCM-CTD;FAAP24, the binding result is recorded as “binds”.

B2: Hairpin15 (3' flap hairpin) (structured_DNA)
DNA: GGTATGAGCACTGCTTAGGCAGTGCTCATACCGCATGGAGCTG
Consider B2, for which the binding result in data set [3] was “binds”.

For the origin of these results see publication PMC12263834, “Structural basis of Fanconi anemia pathway activation by FANCM”.
